Data published in US20150140014A1.

Tests used:
[1] = molecular target: c-Met on human cancer cells (MKN45 gastric cancer cells; NCI-H441 lung cancer cells) (human) (UniProt P08581); assay: cell-based or functional assay
[2] = molecular target: human c-Met protein (human) (UniProt P08581); assay: SPR (Biacore), antibody immobilized on CM5 chip, human c-Met protein 0.39-100 nM injected
human c-Met protein (human), sequence (P08581 25-932 limits assumed): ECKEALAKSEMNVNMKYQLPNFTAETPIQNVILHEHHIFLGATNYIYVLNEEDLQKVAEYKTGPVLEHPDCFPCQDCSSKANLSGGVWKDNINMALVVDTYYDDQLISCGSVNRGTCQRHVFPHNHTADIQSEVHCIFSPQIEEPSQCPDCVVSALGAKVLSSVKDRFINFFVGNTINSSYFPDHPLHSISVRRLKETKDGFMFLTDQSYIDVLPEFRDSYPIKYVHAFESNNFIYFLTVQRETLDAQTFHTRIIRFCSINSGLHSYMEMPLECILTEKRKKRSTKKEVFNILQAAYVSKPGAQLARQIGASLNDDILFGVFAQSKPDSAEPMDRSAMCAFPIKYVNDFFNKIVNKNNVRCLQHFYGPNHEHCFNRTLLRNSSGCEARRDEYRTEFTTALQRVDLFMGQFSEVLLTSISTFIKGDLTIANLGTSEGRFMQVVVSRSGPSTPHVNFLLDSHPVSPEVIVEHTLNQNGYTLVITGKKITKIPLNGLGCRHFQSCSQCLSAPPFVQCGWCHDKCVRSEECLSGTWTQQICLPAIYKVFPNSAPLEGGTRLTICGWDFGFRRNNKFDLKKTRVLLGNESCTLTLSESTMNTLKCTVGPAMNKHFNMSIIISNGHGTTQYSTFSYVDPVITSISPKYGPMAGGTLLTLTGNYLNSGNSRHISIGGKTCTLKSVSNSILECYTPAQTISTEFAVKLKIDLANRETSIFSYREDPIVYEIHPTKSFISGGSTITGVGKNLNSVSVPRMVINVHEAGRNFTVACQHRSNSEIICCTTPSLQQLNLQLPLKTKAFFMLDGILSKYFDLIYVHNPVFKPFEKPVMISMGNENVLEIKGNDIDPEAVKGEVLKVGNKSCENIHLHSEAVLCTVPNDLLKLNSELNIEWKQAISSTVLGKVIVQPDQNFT

c-Met on human cancer cells (MKN45 gastric cancer cells; NCI-H441 lung cancer cells) (human), sequence (P08581 25-1390): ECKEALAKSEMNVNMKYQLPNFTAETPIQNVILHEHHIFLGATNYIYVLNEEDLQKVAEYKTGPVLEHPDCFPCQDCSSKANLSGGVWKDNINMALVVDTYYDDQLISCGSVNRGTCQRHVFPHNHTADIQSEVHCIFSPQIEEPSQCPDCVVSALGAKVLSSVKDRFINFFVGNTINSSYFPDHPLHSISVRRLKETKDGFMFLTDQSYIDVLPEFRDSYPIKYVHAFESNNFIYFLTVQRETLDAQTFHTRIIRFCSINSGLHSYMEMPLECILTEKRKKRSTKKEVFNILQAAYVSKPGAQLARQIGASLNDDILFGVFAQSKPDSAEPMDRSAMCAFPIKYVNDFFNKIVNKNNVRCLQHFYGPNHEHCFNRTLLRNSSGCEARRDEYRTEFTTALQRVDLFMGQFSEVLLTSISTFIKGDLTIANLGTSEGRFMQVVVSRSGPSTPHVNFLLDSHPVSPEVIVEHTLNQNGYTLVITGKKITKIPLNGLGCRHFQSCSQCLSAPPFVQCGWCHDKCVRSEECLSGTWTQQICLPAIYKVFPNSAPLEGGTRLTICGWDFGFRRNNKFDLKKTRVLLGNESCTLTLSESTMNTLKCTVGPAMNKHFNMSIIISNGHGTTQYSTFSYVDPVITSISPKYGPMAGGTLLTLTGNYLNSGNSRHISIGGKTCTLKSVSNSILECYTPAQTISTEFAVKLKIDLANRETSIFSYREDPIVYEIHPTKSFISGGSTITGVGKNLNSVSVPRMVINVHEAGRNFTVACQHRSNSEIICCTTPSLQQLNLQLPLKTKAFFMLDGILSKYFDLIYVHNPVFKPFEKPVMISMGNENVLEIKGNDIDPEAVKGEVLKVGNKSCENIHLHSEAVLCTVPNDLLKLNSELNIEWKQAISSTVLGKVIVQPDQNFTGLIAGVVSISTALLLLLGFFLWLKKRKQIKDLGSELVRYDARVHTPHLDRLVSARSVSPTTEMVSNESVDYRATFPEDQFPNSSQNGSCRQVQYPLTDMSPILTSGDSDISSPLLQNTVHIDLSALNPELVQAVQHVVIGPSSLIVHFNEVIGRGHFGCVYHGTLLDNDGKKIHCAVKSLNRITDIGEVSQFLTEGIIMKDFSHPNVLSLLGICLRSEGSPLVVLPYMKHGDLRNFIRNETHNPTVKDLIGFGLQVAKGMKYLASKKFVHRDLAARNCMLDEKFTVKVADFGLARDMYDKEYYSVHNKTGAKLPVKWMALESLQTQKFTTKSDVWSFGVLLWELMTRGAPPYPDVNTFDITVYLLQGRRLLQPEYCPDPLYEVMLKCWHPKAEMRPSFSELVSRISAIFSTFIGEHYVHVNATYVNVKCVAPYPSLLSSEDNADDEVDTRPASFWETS

BrdU assay on NCI-H441 cells (agonism), 10 ug/ml [1]: 25%
degree of degradation of c-Met (total c-Met ELISA, MKN45 cells, 5 ug/ml, 24 hours) [1]: 37%
Kd [2]: 0.06 nM
koff [2]: 4.53e-05 s⁻¹
kon [2]: 739000 M⁻¹ s⁻¹
B1: huAbF46-H4-A1 (antibody, from a related filing, V domains shown)
VH: EVQLVESGGGLVQPGGSLRLSCAASGFTFTDYYMSWVRQAPGKGLEWLGFIRNKANGYTTEYSASVKGRFTISRDNSKNTLYLQMNSLRAEDTAVYYCARDNWFAYWGQGTLVTVSS
VL: DIQMTQSPSSLSASVGDRVTITCKSSQSLLASGNQNNYLAWHQQKPGKAPKMLIIWASTRVSGVPSRFSGSGSGTDFTLTISSLQPEDFATYYCQQSYSRPYTFGQGTKVEIKR
